Consider 25 molecules from US20240116985A1, “STAPLED PEPTIDES AND METHODS THEREOF” (priority 2020, published 2024).

The IC50 is the concentration that gives 50% inhibition. What is called EC50 is the concentration needed to bring the measured effect to its halfway point. A low value points to greater potency.

Starred links: 1 amine or outer side, 2 acyl side, 3 side chain; linkers in the order of their positions; H or OH if unused. Positions of bridges follow the written chain, without caps; N, C: chain ends. Non-standard residues stand in square brackets, D forms with d. Primed or numbered codes have the meaning given here. *: point of attachment. PyrS2″ = (S)-3-amino-1-((pent-4-en-1-yloxy)carbonyl)pyrrolidine-3-carboxylic acid (stapling residue), C=CCCCOC(=O)N1CC[C@@](N[*:1])(C(=O)[*:2])C1; B5(32) = 2-amino-2-(pent-4-en-1-yl)hept-6-enoic acid (bis-4-pentenylglycine, two alkene side chains), C=CCCCC(CCCC=C)(N[*:1])C(=O)[*:2]; B5(4) = 2,2-bis(4-pentenyl)glycine = 2-amino-2-(pent-4-en-1-yl)hept-6-enoic acid (stitching residue), C=CCCCC(CCCC=C)(N[*:1])C(=O)[*:2]; PyrS2 = (S)-3-amino-1-((pent-4-en-1-yloxy)carbonyl)pyrrolidine-3-carboxylic acid, C=CCCCOC(=O)N1CC[C@@](N[*:1])(C(=O)[*:2])C1; PyrS = (S)-1-((allyloxy)carbonyl)-3-aminopyrrolidine-3-carboxylic acid, C=CCOC(=O)N1CC[C@@](N[*:1])(C(=O)[*:2])C1; MorphAsn = (S)-2-amino-4-morpholino-4-oxobutanoic acid, O=C(C[C@H](N[*:1])C(=O)[*:2])N1CCOCC1; B5(3) = 2,2-bis(4-pentenyl)glycine (stitching residue), C=CCCCC(CCCC=C)(N[*:1])C(=O)[*:2]; B5 = 2-amino-2-(pent-4-en-1-yl)hept-6-enoic acid, C=CCCCC(CCCC=C)(N[*:1])C(=O)[*:2]; B6 = 2-amino-2-(hex-5-en-1-yl)oct-7-enoic acid, C=CCCCCC(CCCCC=C)(N[*:1])C(=O)[*:2]; MeGln = N5-methyl-L-glutamine, CNC(=O)CC[C@H](N[*:1])C(=O)[*:2]; Phe(3-COOH) = N[C@@H](Cc1cccc(C(=O)O)c1)C(=O)O; Phe(2-CF3) = N[C@@H](Cc1ccccc1C(F)(F)F)C(=O)O; Phe(2-Cl) = N[C@@H](Cc1ccccc1Cl)C(=O)O; Phe(4-Me) = Cc1ccc(C[C@H](N)C(=O)O)cc1; 2Nal = N[C@@H](Cc1ccc2ccccc2c1)C(=O)O; Phe(2-Me) = Cc1ccccc1C[C@H](N)C(=O)O; Bta = N[C@@H](Cc1csc2ccccc12)C(=O)O; αAllylPro = C=CC[C@@]1(C(=O)O)CCCN1; tBuAla = CC(C)(C)C[C@H](N)C(=O)O; 3Thi = N[C@@H](Cc1ccsc1)C(=O)O; Cha = N[C@@H](CC1CCCCC1)C(=O)O; S8 = C=CCCCCCC[C@](C)(N)C(=O)O; Aib = CC(C)(N)C(=O)O; BrAc = O=C(CBr)*

For one assay, the target named is full-length beta-Catenin (Uniprot ID P35222) (Homo sapiens (Human)) (UniProt P35222). The experiment in a line: fluorescence polarization competition; peptide titrated against 10 nM full-length beta-catenin + 10 nM 5FAM-TCF4(10-53). Background: Polarisation of emitted light reports the rotation of a fluorescent probe.
full-length beta-Catenin (Uniprot ID P35222) (Homo sapiens (Human)), sequence (P35222 whole entry): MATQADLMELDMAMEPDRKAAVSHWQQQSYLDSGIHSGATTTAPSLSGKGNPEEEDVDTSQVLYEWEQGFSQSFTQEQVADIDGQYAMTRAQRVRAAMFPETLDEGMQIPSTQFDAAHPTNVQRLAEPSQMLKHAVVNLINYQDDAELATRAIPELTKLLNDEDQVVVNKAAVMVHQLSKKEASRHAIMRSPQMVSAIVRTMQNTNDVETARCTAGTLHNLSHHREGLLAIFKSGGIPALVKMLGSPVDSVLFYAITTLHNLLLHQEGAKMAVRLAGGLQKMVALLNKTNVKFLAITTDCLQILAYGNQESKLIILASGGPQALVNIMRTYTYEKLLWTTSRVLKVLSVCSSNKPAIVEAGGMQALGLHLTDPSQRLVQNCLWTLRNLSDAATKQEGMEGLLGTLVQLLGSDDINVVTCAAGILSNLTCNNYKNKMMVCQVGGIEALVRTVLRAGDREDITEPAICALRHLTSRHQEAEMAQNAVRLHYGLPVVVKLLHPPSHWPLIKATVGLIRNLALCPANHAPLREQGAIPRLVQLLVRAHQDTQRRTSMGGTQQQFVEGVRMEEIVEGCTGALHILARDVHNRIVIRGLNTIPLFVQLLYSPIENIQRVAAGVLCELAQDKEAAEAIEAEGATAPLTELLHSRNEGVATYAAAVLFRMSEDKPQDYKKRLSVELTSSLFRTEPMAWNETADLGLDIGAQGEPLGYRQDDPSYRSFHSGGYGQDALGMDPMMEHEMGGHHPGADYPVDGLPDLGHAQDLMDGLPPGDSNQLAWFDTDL
Consider Ac-[αAllylPro]DA[B5(4)]DDAAFA[S8][Phe(2-Me)][Bta]Q-NH2 (staple 1-4, 4-11) [I-367], for which the IC50 was determined as 177 nM.

Regarding Ac-[αAllylPro]DA[B5(4)]DDAA[2Nal]A[S8]F[Bta]Q-NH2 (staple 1-4, 4-11) [I-370], the half-maximal inhibitory concentration (IC50) amounted to 1560 nM.

On to Ac-[αAllylPro]DA[B5(4)]DDAA[Phe(2-Me)]A[S8]F[Bta]Q-NH2 (staple 1-4, 4-11; also: later-eluting staple isomer) [I-366], for which the half-maximal inhibitory concentration (IC50) was 1440 nM.

As to Ac-[αAllylPro]DA[B5(4)]DDAA[Phe(2-Me)]A[S8]F[Bta]Q-NH2 (staple 1-4, 4-11; also: earlier-eluting staple isomer) [I-365], the IC50 came to 2720 nM.

Take Ac-[αAllylPro]DA[B5(4)]DDAAFA[S8][Phe(4-Me)][Bta]Q-NH2 (staple 1-4, 4-11) [I-369]: the IC50 was determined as 2310 nM.

Another assay has the same target. The experiment in a line: fluorescence polarization competition; full-length beta-catenin, competitor probe 5FAM-TCF4(10-53).
On to Ac-[αAllylPro]D[tBuAla][B5(4)]D[Phe(3-COOH)]AAFL[PyrS2][3Thi][Bta]NALALA-NH2 (staple 1-4, 4-11; also: earlier eluting staple isomer) [I-2281], for which the IC50 was found to be 138 nM.

For Ac-[αAllylPro]D[tBuAla][B5(32)]D[Phe(3-COOH)]AAFL[PyrS2][3Thi][Bta]NALL-NH2 (staple 1-4, 4-11; also: later eluting staple isomer) [I-2278], the concentration for half-maximal inhibition (IC50) was determined as 120 nM.

Molecule Ac-[αAllylPro]D[tBuAla][B5(4)]D[Phe(3-COOH)]AAFL[PyrS2][3Thi][Bta]NALALALA-NH2 (staple 1-4, 4-11; also: later eluting staple isomer) [I-2284] registered a 50% inhibitory concentration (IC50) of 2680 nM.

Ac-[αAllylPro]D[tBuAla][B5(4)]D[Phe(3-COOH)]AAFL[PyrS2][3Thi][Bta]NALALALA-NH2 (staple 1-4, 4-11; also: earlier eluting staple isomer) [I-2283]: the 50% inhibitory concentration (IC50) turned out to be 2860 nM.

Consider BrAc-[αAllylPro]D[tBuAla][B5(32)]DDAAFQ[PyrS2][3Thi][Bta]H-NH2 (staple 1-4, 4-11) [I-2285], for which the concentration for half-maximal inhibition (IC50) turned out to be 94 nM.

Molecule Ac-[αAllylPro]D[tBuAla][B5(32)]D[Phe(3-COOH)]AAFL[PyrS2][3Thi][Bta]NALL-NH2 (staple 1-4, 4-11; also: earlier eluting staple isomer) [I-2277] displayed a concentration for half-maximal inhibition (IC50) of 114 nM.

As for Ac-[αAllylPro]D[tBuAla][B5(32)]D[Phe(3-COOH)]AAFL[PyrS2][3Thi][Bta]NLLL-NH2 (staple 1-4, 4-11; also: later eluting staple isomer (HPLC peak)) [I-2276], the IC50 came out at 158 nM.

Ac-[αAllylPro]D[tBuAla][B5(3)]D[Phe(3-COOH)]AAFL[PyrS2″][3Thi][Bta]NA[Aib]A[Aib]A-NH2 (staple 1-4, 4-11) [I-2272] gave a half-inhibitory concentration (IC50) of 43 nM.

Ac-[αAllylPro]D[tBuAla][B5(4)]D[Phe(3-COOH)]AAFL[PyrS2][3Thi][Bta]NALALA-NH2 (staple 1-4, 4-11; also: later eluting staple isomer) [I-2282] registered an IC50 of 156 nM.

In turn, Ac-[αAllylPro]D[tBuAla][B5(3)]D[Phe(3-COOH)]AAFL[PyrS2″][3Thi][Bta]NA[Aib]A[Aib]A[Aib]A-NH2 (staple 1-4, 4-11) [I-2273] registered a half-maximal inhibitory concentration (IC50) of 107 nM.

Consider Ac-[αAllylPro]D[tBuAla][B5(32)]D[Phe(3-COOH)]AAFL[PyrS2][3Thi][Bta]NLLL-NH2 (staple 1-4, 4-11; also: earlier eluting staple isomer (HPLC peak)) [I-2275], for which the concentration for half-maximal inhibition (IC50) was 117 nM.

As to Ac-[αAllylPro]D[tBuAla][B5(3)]D[Phe(3-COOH)]AAFL[PyrS2″][3Thi][Bta]NAAAAAAAAA-NH2 (staple 1-4, 4-11) [I-2270], the 50% inhibitory concentration (IC50) was 40 nM.

As for BrAc-[αAllylPro]D[tBuAla][B5(4)]D[Phe(3-COOH)]AAFL[PyrS2][Phe(2-Cl)][Bta]A-NH2 (staple 1-4, 4-11) [I-2286], the IC50 worked out at 88 nM.

As to Ac-[αAllylPro]D[tBuAla][B5(3)]D[Phe(3-COOH)]AAFL[PyrS2″][3Thi][Bta]NL-NH2 (staple 1-4, 4-11) [I-2274], the 50% inhibitory concentration (IC50) turned out to be 10 nM.

For Ac-[αAllylPro]D[tBuAla][B5(3)]D[Phe(3-COOH)]AAFL[PyrS2″][3Thi][Bta]NAAAAAAA-NH2 (staple 1-4, 4-11) [I-2269], the 50% inhibitory concentration (IC50) amounted to 20 nM.

A further assay has the same target. The experiment in a line: fluorescence polarization competition; 10 nM full-length beta-catenin, competitor 10 nM 5FAM-TCF4(10-53).
Molecule Ac-[αAllylPro]DA[B5(4)]DDAAFA[S8][Phe(2-Me)][Bta]Q-NH2 (staple 1-4, 4-11) [I-367] registered an EC50 of 177 nM.

Molecule Ac-[αAllylPro]DA[B5(4)]DDAA[2Nal]A[S8]F[Bta]Q-NH2 (staple 1-4, 4-11) [I-370] gave an EC50 of 1560 nM.

In turn, Ac-[αAllylPro]DA[B5(4)]DDAA[Phe(2-Me)]A[S8]F[Bta]Q-NH2 (staple 1-4, 4-11; also: later-eluting staple isomer) [I-366] had a concentration for a half-maximal effect (EC50) of 1440 nM.

Ac-[αAllylPro]D[tBuAla][B6]D[Phe(3-COOH)]QAFL[PyrS][Phe(2-CF3)][Bta]A-NH2 (staple 1-4, 4-11; also: later-eluting staple isomer composition) [I-2507] registered a half-maximal inhibitory concentration (IC50) of 168 nM.

With Ac-[αAllylPro]D[tBuAla][B6]D[Phe(3-COOH)]QAFL[PyrS][Phe(2-CF3)][Bta]A-NH2 (staple 1-4, 4-11; also: earlier-eluting staple isomer composition) [I-2506], the half-inhibitory concentration (IC50) was found to be 332 nM.

Molecule Ac-[αAllylPro]N[Cha][B5]DQTAFL[PyrS2]F[Bta][MorphAsn]-NH2 (staple 1-4, 4-11) [I-2503] returned an IC50 of 1310 nM.

In the case of Ac-[αAllylPro]N[Cha][B5]DQ[MeGln]AFL[PyrS2]F[Bta][MorphAsn]-NH2 (staple 1-4, 4-11) [I-2502], the half-maximal inhibitory concentration (IC50) was found to be 214 nM.

Ac-[αAllylPro]DA[B5(4)]DDAA[Phe(2-Me)]A[S8]F[Bta]Q-NH2 (staple 1-4, 4-11; also: earlier-eluting staple isomer) [I-365] registered an EC50 of 2720 nM.

Ac-[αAllylPro]N[Cha][B5]DQQAFL[PyrS2]F[Bta][MorphAsn]-NH2 (staple 1-4, 4-11) [I-2504] had a half-inhibitory concentration (IC50) of 210 nM.

As to Ac-[αAllylPro]DA[B5(4)]DDAAFA[S8][Phe(4-Me)][Bta]Q-NH2 (staple 1-4, 4-11) [I-369], the concentration for a half-maximal effect (EC50) is 2310 nM.
